Laboratory results as given in paper PMC4521159.

Key:
[1] = molecular target: α-synuclein oligomers formed during incubation with IDE (37 °C, 48 h, agitation) (UniProt P37840)
[2] = molecular target: α-synuclein oligomers formed during incubation with IDE (37 °C, 48 h, agitation) (UniProt P37840); remark: listed apart in the source
[3] = molecular target: pre-formed α-synuclein oligomers (formed with the small molecule FN075) (UniProt P37840); assay: ITC; 200 μM IDE in the syringe, 20 μM pre-formed α-synuclein oligomers (FN075) in the cell; 20 or 30 °C; 20 mM phosphate pH 7.4, 140 mM NaCl

ThT fluorescence of 70 μM α-synuclein after 48 h (37 °C, agitation) with 0.2-6.0 μM IDE; half maximal inhibition of amyloid formation (molar ratio IDE to α-synuclein) [1]: 0.025
kcat of 1 μM IDE on fluorogenic substrate V after 48 h pre-incubation with 0-100 μM α-synuclein (0.020 without; highest at 100 μM) [2]: 0.058 s⁻¹
kcat of 3 μM IDE on fluorogenic substrate V after 48 h pre-incubation with 0-70 μM α-synuclein (0.241 without; highest at 35 μM) [2]: 0.397 s⁻¹
kcat/KM of 1 μM IDE on fluorogenic substrate V after 48 h pre-incubation with 0-100 μM α-synuclein (1010 without; highest at 100 μM) [2]: 1190 M⁻¹ s⁻¹
kcat/KM of 3 μM IDE on fluorogenic substrate V after 48 h pre-incubation with 0-70 μM α-synuclein (25400 without; highest at 35 μM) [2]: 30500 M⁻¹ s⁻¹
stoichiometry N (IDE molecules per α-synuclein oligomer) [3]: 3
Substance: Insulin-degrading enzyme (IDE) (from UniProt P14735 1-1019)
